Assay results taken from article PMC7367873, “Dissecting the sequence determinants for dephosphorylation by the catalytic subunits of phosphatases PP1 and PP2A” (Nature Communications, 2020).
One block for each molecule: values may come before it.

What was measured:
[1] = test system: GFP-14-3-3β and its binding proteins; test: GFP-14-3-3β co-IP with LC-MS/MS label-free quantification, untreated versus PP1c-treated; design: species or system human; conditions: 3 replicates each
GFP-14-3-3β = GFP-14-3-3β co-IP with LC-MS/MS, untreated GFP-14-3-3β versus GFP control (14-3-3 interactome); assay type: binding, human; conditions: 3 replicates each
[2] = PP1 vs untreated, LFQ intensities
[3] = untreated vs GFP, LFQ intensities

B1: BAG2 (protein, UniProt O95816 2-211, looked up)
BAG family molecular …: AQAKINAKANEGRFCRSSSMADRSSRLLESLDQLELRVEALREAATAVEQEKEILLEMIHSIQNSQDMRQISDGEREELNLTANRLMGRTLTVEVSVETIRNPQQQESLKHATRIIDEVVNKFLDDLGNAKSHLMSLYSACSSEVPHGPVDQKFQSIVIGCALEDQKKIKRRLETLLRNIENSDKAIKLLEHSKGAGSKTLQQNAESRFN
Difference (log2), PP1 vs untreated ([1]; log2 difference, pairwise comparison PP1 vs untreated, label-free quantification): 2.1096
Difference (log2), untreated vs GFP (GFP-14-3-3β; log2 difference, pairwise comparison untreated vs GFP, label-free quantification): -1.564

B2: NFX1 (protein, UniProt Q12986 1-1120, looked up)
Transcriptional repressor …: MAEAPPVSGTFKFNTDAAEFIPQEKKNSGLNCGTQRRLDSNRIGRRNYSSPPPCHLSRQVPYDEISAVHQHSYHPSGSKPKSQQTSFQSSPCNKSPKSHGLQNQPWQKLRNEKHHIRVKKAQSLAEQTSDTAGLESSTRSESGTDLREHSPSESEKEVVGADPRGAKPKKATQFVYSYGRGPKVKGKLKCEWSNRTTPKPEDAGPESTKPVGVFHPDSSEASSRKGVLDGYGARRNEQRRYPQKRPPWEVEGARPRPGRNPPKQEGHRHTNAGHRNNMGPIPKDDLNERPAKSTCDSENLAVINKSSRRVDQEKCTVRRQDPQVVSPFSRGKQNHVLKNVETHTGSLIEQLTTEKYECMVCCELVRVTAPVWSCQSCYHVFHLNCIKKWARSPASQADGQSGWRCPACQNVSAHVPNTYTCFCGKVKNPEWSRNEIPHSCGEVCRKKQPGQDCPHSCNLLCHPGPCPPCPAFMTKTCECGRTRHTVRCGQAVSVHCSNPCENILNCGQHQCAELCHGGQCQPCQIILNQVCYCGSTSRDVLCGTDVGKSDGFGDFSCLKICGKDLKCGNHTCSQVCHPQPCQQCPRLPQLVRCCPCGQTPLSQLLELGSSSRKTCMDPVPSCGKVCGKPLPCGSLDFIHTCEKLCHEGDCGPCSRTSVISCRCSFRTKELPCTSLKSEDATFMCDKRCNKKRLCGRHKCNEICCVDKEHKCPLICGRKLRCGLHRCEEPCHRGNCQTCWQASFDELTCHCGASVIYPPVPCGTRPPECTQTCARVHECDHPVYHSCHSEEKCPPCTFLTQKWCMGKHEFRSNIPCHLVDISCGLPCSATLPCGMHKCQRLCHKGECLVDEPCKQPCTTPRADCGHPCMAPCHTSSPCPVTACKAKVELQCECGRRKEMVICSEASSTYQRIAAISMASKITDMQLGGSVEISKLITKKEVHQARLECDEECSALERKKRLAEAFHISEDSDPFNIRSSGSKFSDSLKEDARKDLKFVSDVEKEMETLVEAVNKGKNSKKSHSFPPMNRDHRRIIHDLAQVYGLESVSYDSEPKRNVVVTAIRGKSVCPPTTLTGVLEREMQARPPPPIPHHRHQSDKNPGSSNLQKITKEPIIDYFDVQD
Difference (log2), PP1 vs untreated [1, 2]: 0.3965 log2
Difference (log2), untreated vs GFP (GFP-14-3-3β; [3]): 0.9482 log2

B3: FLOT1 (protein, UniProt O75955 1-427, looked up)
Flotillin-1: MFFTCGPNEAMVVSGFCRSPPVMVAGGRVFVLPCIQQIQRISLNTLTLNVKSEKVYTRHGVPISVTGIAQVKIQGQNKEMLAAACQMFLGKTEAEIAHIALETLEGHQRAIMAHMTVEEIYKDRQKFSEQVFKVASSDLVNMGISVVSYTLKDIHDDQDYLHSLGKARTAQVQKDARIGEAEAKRDAGIREAKAKQEKVSAQYLSEIEMAKAQRDYELKKAAYDIEVNTRRAQADLAYQLQVAKTKQQIEEQRVQVQVVERAQQVAVQEQEIARREKELEARVRKPAEAERYKLERLAEAEKSQLIMQAEAEAASVRMRGEAEAFAIGARARAEAEQMAKKAEAFQLYQEAAQLDMLLEKLPQVAEEISGPLTSANKITLVSSGSGTMGAAKVTGEVLDILTRLPESVERLTGVSISQVNHKPLRTA
Difference (log2), PP1 vs untreated [1, 2]: 0.376 log2
Difference (log2), untreated vs GFP (GFP-14-3-3β; [3]): -0.5076 log2

B4: CPS1 (protein, UniProt P31327 39-1500, looked up)
Carbamoyl-phosphate synthase …: LSVKAQTAHIVLEDGTKMKGYSFGHPSSVAGEVVFNTGLGGYPEAITDPAYKGQILTMANPIIGNGGAPDTTALDELGLSKYLESNGIKVSGLLVLDYSKDYNHWLATKSLGQWLQEEKVPAIYGVDTRMLTKIIRDKGTMLGKIEFEGQPVDFVDPNKQNLIAEVSTKDVKVYGKGNPTKVVAVDCGIKNNVIRLLVKRGAEVHLVPWNHDFTKMEYDGILIAGGPGNPALAEPLIQNVRKILESDRKEPLFGISTGNLITGLAAGAKTYKMSMANRGQNQPVLNITNKQAFITAQNHGYALDNTLPAGWKPLFVNVNDQTNEGIMHESKPFFAVQFHPEVTPGPIDTEYLFDSFFSLIKKGKATTITSVLPKPALVASRVEVSKVLILGSGGLSIGQAGEFDYSGSQAVKAMKEENVKTVLMNPNIASVQTNEVGLKQADTVYFLPITPQFVTEVIKAEQPDGLILGMGGQTALNCGVELFKRGVLKEYGVKVLGTSVESIMATEDRQLFSDKLNEINEKIAPSFAVESIEDALKAADTIGYPVMIRSAYALGGLGSGICPNRETLMDLSTKAFAMTNQILVEKSVTGWKEIEYEVVRDADDNCVTVCNMENVDAMGVHTGDSVVVAPAQTLSNAEFQMLRRTSINVVRHLGIVGECNIQFALHPTSMEYCIIEVNARLSRSSALASKATGYPLAFIAAKIALGIPLPEIKNVVSGKTSACFEPSLDYMVTKIPRWDLDRFHGTSSRIGSSMKSVGEVMAIGRTFEESFQKALRMCHPSIEGFTPRLPMNKEWPSNLDLRKELSEPSSTRIYAIAKAIDDNMSLDEIEKLTYIDKWFLYKMRDILNMEKTLKGLNSESMTEETLKRAKEIGFSDKQISKCLGLTEAQTRELRLKKNIHPWVKQIDTLAAEYPSVTNYLYVTYNGQEHDVNFDDHGMMVLGCGPYHIGSSVEFDWCAVSSIRTLRQLGKKTVVVNCNPETVSTDFDECDKLYFEELSLERILDIYHQEACGGCIISVGGQIPNNLAVPLYKNGVKIMGTSPLQIDRAEDRSIFSAVLDELKVAQAPWKAVNTLNEALEFAKSVDYPCLLRPSYVLSGSAMNVVFSEDEMKKFLEEATRVSQEHPVVLTKFVEGAREVEMDAVGKDGRVISHAISEHVEDAGVHSGDATLMLPTQTISQGAIEKVKDATRKIAKAFAISGPFNVQFLVKGNDVLVIECNLRASRSFPFVSKTLGVDFIDVATKVMIGENVDEKHLPTLDHPIIPADYVAIKAPMFSWPRLRDADPILRCEMASTGEVACFGEGIHTAFLKAMLSTGFKIPQKGILIGIQQSFRPRFLGVAEQLHNEGFKLFATEATSDWLNANNVPATPVAWPSQEGQNPSLSSIRKLIRDGSIDLVINLPNNNTKFVHDNYVIRRTAVDSGIPLLTNFQVTKLFAEAVQKSRKVDSKSLFHYRQYSAGKAA
Difference (log2), PP1 vs untreated [1, 2]: 0.4276 log2
Difference (log2), untreated vs GFP (GFP-14-3-3β; [3]): 0.419 log2

B8: BSG (protein, UniProt P35613 22-385, looked up)
Basigin: AAGFVQAPLSQQRWVGGSVELHCEAVGSPVPEIQWWFEGQGPNDTCSQLWDGARLDRVHIHATYHQHAASTISIDTLVEEDTGTYECRASNDPDRNHLTRAPRVKWVRAQAVVLVLEPGTVFTTVEDLGSKILLTCSLNDSATEVTGHRWLKGGVVLKEDALPGQKTEFKVDSDDQWGEYSCVFLPEPMGTANIQLHGPPRVKAVKSSEHINEGETAMLVCKSESVPPVTDWAWYKITDSEDKALMNGSESRFFVSSSQGRSELHIENLNMEADPGQYRCNGTSSKGSDQAIITLRVRSHLAALWPFLGIVAEVLVLVTIIFIYEKRRKPEDVLDDDDAGSAPLKSSGQHQNDKGKNVRQRNSS
Difference (log2), PP1 vs untreated [1, 2]: 0.3522 log2
Difference (log2), untreated vs GFP (GFP-14-3-3β; [3]): 0.07198 log2

Now from value to molecule, other results behind:

Difference (log2), PP1 vs untreated [1, 2]: 0.4246 log2
B5: TUBB4A (protein, UniProt P04350 1-444, looked up)
Tubulin beta-4A chain: MREIVHLQAGQCGNQIGAKFWEVISDEHGIDPTGTYHGDSDLQLERINVYYNEATGGNYVPRAVLVDLEPGTMDSVRSGPFGQIFRPDNFVFGQSGAGNNWAKGHYTEGAELVDAVLDVVRKEAESCDCLQGFQLTHSLGGGTGSGMGTLLISKIREEFPDRIMNTFSVVPSPKVSDTVVEPYNATLSVHQLVENTDETYCIDNEALYDICFRTLKLTTPTYGDLNHLVSATMSGVTTCLRFPGQLNADLRKLAVNMVPFPRLHFFMPGFAPLTSRGSQQYRALTVPELTQQMFDAKNMMAACDPRHGRYLTVAAVFRGRMSMKEVDEQMLSVQSKNSSYFVEWIPNNVKTAVCDIPPRGLKMAATFIGNSTAIQELFKRISEQFTAMFRRKAFLHWYTGEGMDEMEFTEAESNMNDLVSEYQQYQDATAEEGEFEEEAEEEVA
Difference (log2), untreated vs GFP (GFP-14-3-3β; [3]): -1.261 log2

Difference (log2), PP1 vs untreated [1, 2]: 0.3509 log2
B6: WBP11 (protein, UniProt Q9Y2W2 1-641, looked up)
WW domain-binding protein 11: MGRRSTSSTKSGKFMNPTDQARKEARKRELKKNKKQRMMVRAAVLKMKDPKQIIRDMEKLDEMEFNPVQQPQLNEKVLKDKRKKLRETFERILRLYEKENPDIYKELRKLEVEYEQKRAQLSQYFDAVKNAQHVEVESIPLPDMPHAPSNILIQDIPLPGAQPPSILKKTSAYGPPTRAVSILPLLGHGVPRLPPGRKPPGPPPGPPPPQVVQMYGRKVGFALDLPPRRRDEDMLYSPELAQRGHDDDVSSTSEDDGYPEDMDQDKHDDSTDDSDTDKSDGESDGDEFVHRDNGERDNNEEKKSGLSVRFADMPGKSRKKKKNMKELTPLQAMMLRMAGQEIPEEGREVEEFSEDDDEDDSDDSEAEKQSQKQHKEESHSDGTSTASSQQQAPPQSVPPSQIQAPPMPGPPPLGPPPAPPLRPPGPPTGLPPGPPPGAPPFLRPPGMPGLRGPLPRLLPPGPPPGRPPGPPPGPPPGLPPGPPPRGPPPRLPPPAPPGIPPPRPGMMRPPLVPPLGPAPPGLFPPAPLPNPGVLSAPPNLIQRPKADDTSAATIEKKATATISAKPQITNPKAEITRFVPTALRVRRENKGATAAPQRKSEDDSAVPLAKAAPKSGPSVPVSVQTKDDVYEAFMKEMEGLL
Difference (log2), untreated vs GFP (GFP-14-3-3β; [3]): 1.895 log2

Difference (log2), PP1 vs untreated [1, 2]: 0.3437 log2
B7: SRP14 (protein, UniProt P37108 2-136, looked up)
Signal recognition particle …: VLLESEQFLTELTRLFQKCRTSGSVYITLKKYDGRTKPIPKKGTVEGFEPADNKCLLRATDGKKKISTVVSSKEVNKFQMAYSNLLRANMDGLKKRDKKNKTKKTKAAAAAAAAAPAAAATAPTTAATTAATAAQ
Difference (log2), untreated vs GFP (GFP-14-3-3β; [3]): 1.473 log2
